The values that follow are results of earlier work, collected in publication PMC6776250.

What is called Kd is a measure of binding affinity in units of concentration.

The data set has as its target RNase Y (Bacillus subtilis) (UniProt O31774). The data set is described as follows: SPR.
Sequence of UniProt O31774 (O31774 whole entry): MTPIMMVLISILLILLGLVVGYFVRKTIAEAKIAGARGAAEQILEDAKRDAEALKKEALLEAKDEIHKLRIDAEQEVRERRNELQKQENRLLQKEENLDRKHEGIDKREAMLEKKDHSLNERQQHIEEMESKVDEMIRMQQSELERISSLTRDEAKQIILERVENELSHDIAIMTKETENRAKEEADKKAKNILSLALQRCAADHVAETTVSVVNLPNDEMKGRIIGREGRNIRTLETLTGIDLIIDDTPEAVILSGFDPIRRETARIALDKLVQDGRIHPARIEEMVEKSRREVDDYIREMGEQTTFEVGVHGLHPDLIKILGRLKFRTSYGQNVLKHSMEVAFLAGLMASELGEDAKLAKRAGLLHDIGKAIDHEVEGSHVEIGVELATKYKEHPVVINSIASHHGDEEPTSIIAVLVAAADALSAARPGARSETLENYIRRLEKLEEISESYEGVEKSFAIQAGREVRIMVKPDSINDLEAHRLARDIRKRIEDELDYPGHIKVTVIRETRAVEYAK

PNPase (from UniProt P50849): the Kd is 5 nM.
